This is an account of results in patent US20030119727A1 (Genentech, published 2003).

Some results are limits rather than exact numbers.

The target in this assay is T1, recombinant human Factor VIIa (human), P08709.
T1 chain 1: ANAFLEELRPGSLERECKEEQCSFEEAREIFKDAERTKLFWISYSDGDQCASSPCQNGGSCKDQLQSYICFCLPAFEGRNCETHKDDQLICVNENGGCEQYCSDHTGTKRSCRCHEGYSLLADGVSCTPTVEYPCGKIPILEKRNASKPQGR
T1 chain 2: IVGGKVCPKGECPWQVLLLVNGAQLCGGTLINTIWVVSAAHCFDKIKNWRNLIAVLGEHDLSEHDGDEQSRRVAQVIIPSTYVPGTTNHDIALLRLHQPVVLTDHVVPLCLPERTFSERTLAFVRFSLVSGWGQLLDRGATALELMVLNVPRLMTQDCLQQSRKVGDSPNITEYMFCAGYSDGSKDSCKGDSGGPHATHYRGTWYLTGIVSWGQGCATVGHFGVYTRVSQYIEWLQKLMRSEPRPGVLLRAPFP
In words: competition ELISA. To be noted: modification not given. For orientation: An ELISA detects its analyte on a solid surface through an enzyme-linked reagent.
Broadly, the IC50 is the concentration that gives 50% inhibition. Turning to ALCDDPRVDRWACQFVEG [TF145], the IC50 is more than 50 µM. Then ALCDDPRVNRWYCQFVEG [TF97], with 1.2 µM; and ALCDNPRVDRWYCQFVEG [TF106], with 0.002 µM.

Consider ALCDDPRIDRWYCQFVEG [TF121], for which the IC50 turned out to be 0.003 µM. LCDDPRIDRWYCMF [TF61]: the IC50 was 250 µM. On to AACDDPRVDRWYCQFVEG [TF155], for which the IC50 is 9.78 µM. As for LCDDPRVDRWYCQFVEG [TF77], the IC50 worked out at 0.248 µM. With ALCDDPRVERWYCQFVEG [TF111], the IC50 worked out at 0.147 µM. ALCDDPAVDRWYCQFVEG [TF109]: the IC50 was 0.11 µM. In the case of ALCDAPRVDRWYCQFVEG [TF108], the IC50 worked out at 0.104 µM. For ALCDDPRVDAWYCQFVEG [TF112], the IC50 worked out at 0.396 µM. ALCDDPRVARWYCQFVEG [TF110]: the IC50 came to 0.33 µM. ALADDPRVDRWYAQFVEG [TF119]: the IC50 is more than 100 µM. On to ALCADPRVDRWYCQFVEG [TF107], for which the IC50 was 0.01 µM. For VGALCDDPRVDRWYCQFVEG [TF74] the value was 0.005 µM; for VGALCDDPRVDRWYCQFVE [TF75], 0.006 µM; for ALCDEPRVDRWYCQFVEG [TF120], 0.109 µM. Regarding ALCDRPRVDRWYCQFVEG [TF95], the IC50 amounted to 0.123 µM. With AMCDDPRVDRWYCQFVEG [TF319], the half-inhibitory concentration (IC50) amounted to 24 µM. With ALCDDPRVQRWYCQFVEG [TF161], the IC50 is 8.62 µM. ALCDDPEVDRWYCQFVEG [TF96]: the IC50 came to 0.257 µM.

As for AKCDDPRVDRWYCQFVEG [TF320], the IC50 is 42 µM.

For ALCRDPRVDRWYCQFVEG [TF127], the IC50 was found to be 0.028 µM. Regarding ALCDDPRADRWYCQFVEG [TF129], the IC50 came to 0.716 µM. With AVCDDPRVDRWYCQFVEG [TF317], the IC50 came out at 0.988 µM. Regarding CDDPRVDRWYCQFVEG [TF156], the IC50 was 90.3 µM.
